Data taken from the domain aggregation screens of Martell et al. (2025).

Assay: soluble fraction after stress (log2 fold change); higher = more stays soluble; pooled small domains, quantitative proteomics
Conditions: stress: 50 degC
How it was run: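 The measure of aggregation propensity here is the base-two logarithm of the fold change in the soluble amount of each protein after stress. A higher value means more of that protein stays in solution. Stress was applied at 50°C to pooled libraries of small protein domains, read out by high-throughput quantitative proteomics.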

Sequence	soluble fraction (log2)
HMKKSTLLLFFLKELLEGKKISLKSFALENDINIRTAQRYIEDIEEAFPDNLLKENDFYSFV	-2.25
HMVSKSDVQRALEKVEPVLRKLGGSTVEKVRVMARQATLVFEMLKSWWKGEIDLPWKTVAAMTVTLLYL	-0.266
HMLDKEDNANAGKTLLERELSRAHLSDVEHRELAQRLHLASEQELYIKIGSGDLSIIQALNRAKEFKDT	-0.0156
HMAVTKVKVITESSNLNIRKGPGTDQPIVGKAAHHEIITLVNKSNDQWWLVRTNDGEEGYSYSRYLEPVT	-0.39
HMITFRINQQSQVGLRLDKFIVQQMPDYSRTRIQSWIKTKNILVNGEGKKSGYALEFDDLVEVTIPE	-2.04
HMTPILTAQQVVAALQAAGYRNVHDLEFEHGRWEADAVNAAGQRVELHINPYTGAIERERLD	≥ 0.62
HMLGVKKFGGEAVIAGNIILRQRGTKWITGSNVGIGKDHTLFAKIEGYVVFERMRGRDGQQQISIYP	-0.101
HMEEEEITIHIIGEVKYPGIVILKTGQRIIDAIDAAGGETEEADLNKINLAQLLSDGDKIYVPSINDN	-0.0785
HMDTPVYYYVNGNGVRMRKDASLESDILILLYKGTKVEYVDVKGEWIKVKYNNEIGYIRNDLLSAEMPD	-0.0872
HMPEPLTARETEVLRLLSGGYSNREIAAAMFLAEGTIKNHVSAVLLKLGVRDRTRAVLRGLELGLIQ	-1.81
HMGRPQISDELRNAIIEVAKDNRDWGYIRIQGQLKYLGYRVSTATIGKVLKKAGLEPQPDRRRK	-0.264
HMGNFGDLLKILLDEKELSMGELSKKSGIDKSTISRIANNKQKPNINHLEKMAIHLNINLEELLKASGYEF	-0.364
HMDFGPDSAAPLADGSAPEGFDVKGNADSMLYHEPDGRWYDATVAEVWFRTAEAAQAAGFTKAGS	-0.0829
HMVNPIDFYLLFRTELQRLAEHPITVDRLTEVTGLNKLQVLDWLKRAEQDGLVKKLNRPTRYQLN	-0.0401
HMGTRHPLPYAFAKAHTVLLEDDGDRLLLHAAENSGPSALGEILRLYDVDALERETASTLANRIAVAYAG	0.00932
HMKIEEVIEKLKTDSIISRKEYEDIVRQINPNLSDRTIFWQLAKLQDMGVLQKIGQNSFHVRN	-0.26
HMLQYSQEIEEAQKILQNLGLYKGEIDGINGVNTKSAIKEFQRKSGLIIDGILGPNTTSALSKGAESYITV	0.112
HMEKRIIMLEELKKQVYEANMELPRRGLITYTWGNVSGIDRESGNFVIKPSGVDYDKLKPEDMVVMDL	-0.0887
HMHSDSEIEKGYTDDGQKLSNVNGVYMTKSEMYNKGIVEKDPNTGEEVMGRNRVNPVTGELE	0.164
HMADLSAYAGKEGMTDSVLRPSGKVDIEGHILDAVSRGDFIEKGKRVIVIKAEGSYLVVKKRMP	-0.175
HMQPEKELAPLIGQRVSVRLHDGDGGYRDLLGELESPDSIRKKNGEIAFFDPAKIAALRVVV	0.0899
HMNTDEYEQKRGEILDAAQRLIYTKGYERMSIQDILDELKISKGAFYHYFDSKQSLLEALTARMMTE	-0.101
HMHMSKKLADSIISLRRKHGFSQEQLAEKIGVTRQAISNWERGTATPDVETLNLIAKLFDMDLLAIINGE	0.0766
HMRSISVEMDGKEYLIPTVSENGKVLSDDDAVKQFKKTGKHLDVFDSPEDATAYARQLHEDQESFYA	0.142
HMPTLTPFDVARIENAINPRLNLETAAKLKPWIAAGYTAQETADGTGFSPDTVKKYAAIFRK	0.103
HMKDSKSALQEYALERKMGLPVYEVVDRSGPDHAPQFVIAVSLGEWRLEAKGASKRQAEQQAASLMLEEI	-0.353
HMFERINLIGVNGTTKKRSALVRLLDGEIVKIGVGDSLNGGQVVDISPATLTYLKSGKSIMLTLPK	-1.03
HMTTIRQQAEVPLSAAGRRFDQALAEMFPAYSRSRLSGWIKAGAATLDGAPAAPRQLLRGGERVELDVELE	-0.0501

Sequence	soluble fraction (log2)
HMNKITIEEAKSIALKHSNLDESQVSFIRSEYDFDNGIEKYEIEFYYNNNKYEYEINAKTGDIISYDYDI	-0.292
HMEQPPVPSVSITAALGSAVARRLAPHGFQKMPDLVDAYRAGKLAQISGIGGTTLDLIREWLTANARQQ	0.0154
HMGGEEPYGSGSLRLAAGAVVPSGYTIKGNEDSMLYHTTESPWYKQTIAEVWFNAESAAQRAGFTRWDAKD	-0.114
HMRTGSSVLVGLVAPVRLGATGAPKVFADGALWEARSAVPLNDGQLVEITGTDGLTVLVKPSA	0.0494
HMPRDQQENIYLLEKGKRLYEEHLGDQRQIIGHRIMIFERILESQDHAQIRRAQSEFAEFLSHYDG	-0.229
HMYVYEPGEFAVRGSILDVYSYASEFPYRIDFFGDDVESIRTFEVQTQLSKEAKDRVSIVPDTEQ	-0.181
HMTYMWTTDGVNLRSEPNTDSAVVTVLGVGTQVRMIGEEDGWVKVSFNDQEGYIRADFLTTE	-0.0926
HMSTLGIRIKHYRTDSNLTQKELAGLINVKRDALANWETDRALPDVMNLKKLAEVFQVSTDELLQV	-0.927
HMAPTADSVPFVIRSVVGGAQPFIVLEDGSKLLVGGVYRKYRLVAVENTRIIFEGPRTAIVT	-1.33
HMTNQKEITYSQFRQELDQGSIKSVSLQGSRIRGTYVDGGISFRTLAPNDADLIPSLMKHKVDIQVLPED	0.247
HMRRRVIGTLVMGDMSTDFKVLADGHTHRVLAAAISFHKAKPGDEVVILVPKSAPSKWAAVEHVMK	0.458
HMADLTEEQKTLFRLIRDLQPVSSKTLLENSGFTRSTQTRLLNGLIEKQIVIRTGNGPATRYSLR	-0.246
HMADEDTILALAKEILASWPDKVEAYKNGNKGMLGLFMGELMKKSGGKANPKSASALIQKLLE	-0.0387
HMNGARALAGAIAEAIRKQVYRVNERLPAERELASHYDVSRGTLRSALALLEQEGLVTRKVGSGTFVMPP	-0.438
HMSTDSTQLLGFNKTGEELPIYKEANEENKFAEIPQNVYVKNFGQNGEFTKIKYLDQEGYVKTAGLK	≥ 0.62
HMLDKRSHAKKVLDAIEAVILGRATNDQLAYTINGRSLQKTPLPDLLRLRSQYQAEYQRELRAERIRKG	-0.131
HMLPVDALFAQHPALIVTLGQTEKLKHGAAIRDWHFADGTYRVYSETGEFLLLGTVKGQILTTVKSFFE	-2.08
HMAEVTLTVREQEVLHLLARGMSNGEMAAHLYVEPTTIKYHLTGLLQKTGSRDRLQAVLWGIRAGMVH	-2.18
HMTDLEDDEKKVYRLIVESGEGIDFDTLSERSGFSATELPSILLFLMMKEMIDELPGKIYRYSE	0.0814
HMSNIAQRLVLENALAKLNQEQQTIIDLRIIKGYSVAETARLLGKTESAVRTAQYRALKELAGILEED	-0.86
HMQGENDVTIDPKKLTIGDLAKEISKIEDSEELNNILVAEKEGKGRKGAINAITERIENVSGGTG	0.133
HMEFDFGAILSGNGGSELYSGYSAEQKAALVEAAKADGMDVEFGADGSTTFKDKDGSEVVQKADGTWTV	0.18
HMDTVEALTEQLKKLDKRGEGQIPAPEFKQYMMNMGGKMTAEELDEMMKVADPGKEGVVNIAEFADAL	0.35
HMDSQKKNETLSSTADEIIKNYAGKRDLSEESMEQLEQFQKDMRGADVNIFTAAQIRMLDQIFQENLH	-0.0243
HMALPHEIKQKWLEEIMTMLRSSDSVTINKVYLHFPENKSHWVDEILTDLSNTHMITRQHDFIRLKN	-0.282
HMLPSDLDEGNRRRQLIEGAARLFRAKGFDGTSTRDIAAAAGMRSGSPFYHFDSKNALLYVVVQEGM	-0.0519
HMNVESLVGKQVIVSETIDNLKATGQVKVNGLEWTARAADETDIIPQGTEVTINEVSGVKLIVSR	0.241
